Assay [1] deals with T1, S100 calcium binding protein B (human, UniProt P04271 2-92).
T1 construct: on protein array; also called S100B
T1 sequence: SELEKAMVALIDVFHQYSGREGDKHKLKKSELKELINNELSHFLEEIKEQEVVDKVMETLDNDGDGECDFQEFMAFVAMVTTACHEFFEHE
Nature of the assay: protein array, with experimental replicate.

For assay [2], the target named is T2, checkpoint kinase 2, transcript variant 3 (human).
T2 construct: on protein array; also called CHEK2
T2 chain: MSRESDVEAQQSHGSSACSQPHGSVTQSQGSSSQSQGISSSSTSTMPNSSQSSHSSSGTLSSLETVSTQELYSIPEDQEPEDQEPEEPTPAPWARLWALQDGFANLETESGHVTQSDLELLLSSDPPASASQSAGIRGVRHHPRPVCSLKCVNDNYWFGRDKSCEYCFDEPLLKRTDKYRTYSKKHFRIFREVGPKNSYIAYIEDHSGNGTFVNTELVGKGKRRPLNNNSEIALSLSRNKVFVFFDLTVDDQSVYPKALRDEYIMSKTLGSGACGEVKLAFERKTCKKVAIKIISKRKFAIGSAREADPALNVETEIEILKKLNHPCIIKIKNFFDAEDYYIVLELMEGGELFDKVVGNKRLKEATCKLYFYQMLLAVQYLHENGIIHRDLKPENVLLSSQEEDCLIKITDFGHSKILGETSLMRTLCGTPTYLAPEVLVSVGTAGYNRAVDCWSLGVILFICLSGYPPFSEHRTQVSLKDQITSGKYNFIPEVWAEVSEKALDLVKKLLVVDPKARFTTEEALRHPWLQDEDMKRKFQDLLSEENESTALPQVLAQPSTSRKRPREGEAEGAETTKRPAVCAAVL
Kind of assay: protein array.

The target in assay [3] is T3, ankyrin repeat domain 53, transcript variant 2 (human).
T3 construct: on protein array; also called ANKRD53
T3 chain: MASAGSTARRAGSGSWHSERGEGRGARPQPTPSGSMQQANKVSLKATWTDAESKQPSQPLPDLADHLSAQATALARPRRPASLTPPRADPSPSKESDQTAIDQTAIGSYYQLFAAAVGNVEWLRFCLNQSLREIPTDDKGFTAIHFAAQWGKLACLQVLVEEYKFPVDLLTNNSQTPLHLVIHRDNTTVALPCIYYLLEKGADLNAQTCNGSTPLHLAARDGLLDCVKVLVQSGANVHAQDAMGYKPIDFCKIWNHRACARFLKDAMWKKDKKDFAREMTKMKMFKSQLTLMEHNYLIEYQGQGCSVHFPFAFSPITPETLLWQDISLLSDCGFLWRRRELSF
Kind of assay: protein array, with experimental replicate.

B1: TKIC10012 (antibody, V domains shown)
VH: VVQLVESGGGLVQPGGSLRLSCAASGFSFSTYWMSWVRQAPGKGLEWVANIKQDGSEKHYVDSVKGRFTISRDNAKNSLYLQMNSLRAEDTAMYYCARRAYSFDYWGQGTLVTVSS
VL: DIQMTQSPSTLSASVGDKVTITCRASQSVGSWLAWYQQKPGKAPKLLISVASSLESGVPSRFSGSGSGTEFTLTVSSLQPDDFATYYCQQYNSYSWTFGQGTKVELKR
notes: VH/VL tied via antigen in summary, not by name in this stretch
Consider B1, for which the binding result in assay [1] is “binds”.

B2: TKIC10013 (antibody, V domains shown)
VH: EVQLVESGGGLVQPGGSLRLSCAASGFTFNNYWMHWVRQAPGKGLVWVSRISSDGSTTASADSVKGRFTISRDNAKNTLFLQMNSLRAEDTAVYYCAREGAPDDYGDSGTAFDIWGQGTTVTVSS
VL: DIQLTQSPSFLSASVGDRVTITCRASQDISSFLAWYQQKPGKAPDLLIYAASTLQSGVPSRFSGSGSGTEFTLTISSLQPEDFAAYYCQHLTSFPYTFGQGTKLEIKR
notes: as for B1
Take B2: in assay [2], the binding result is “binds”.

B3: TKIC10019 (antibody, V domains shown)
VH: QLQLQESGPGLVKPSETLSLTCTVSDVSIISSFYYWGWIRQPPGKGLEWIGSVYYSGSTSYNPSLKSRVTISADTSKAHFSLNLRSVTAADTAVYYCVSRGPLGGAAAGPDYWGQGALVIVSS
VL: VSSELTQDPAVSVALGQTVRITCQGDSLRSYYATWYQQKPGQAPLLVIFDKDKRPSGIPDRFSGSSSGNTASLTITGAQPEDEAVYYCNSRDSSAHDHLLFGGGTTLTVLG
notes: as for B1
As to B3, the binding result in assay [3] is “binds”.

The values above are taken from patent US20220204643A1 (published 2022).
